Experimental data from article PMC314469, “Protein Interaction Networks by Proteome Peptide Scanning” (PLoS Biology, 2004).

T1: Abp1 SH3 (ABP1_YEAST), P15891
T1 chain: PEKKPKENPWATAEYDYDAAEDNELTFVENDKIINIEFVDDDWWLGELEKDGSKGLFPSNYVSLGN


Molecular target: T1, Abp1 SH3 (ABP1_YEAST), P15891
Test: SPOT array

normalised SPOT signal, Boehringer light units (BLU); mean over the file's lines of this peptide | Binder
163 | INLAVNMPPGQRP [YEL055C 74-86]
153 | IMSPVGNPEGPEKP [YKL060C 311-324]
137 | IKEEERLQSQPPRP [YGR268C 17-30]
50 | IPEYILDPNAQKP [YAL058W 299-311]
90.5 | IATSADYIFIPEKP [YMR205C 403-416]
125 | IIHTDDLPEGIRP [YLR090W 426-438]
163 | IFLNYEWPQWLRP [YOR336W 1160-1172]
2180 | IPLLKEKPNALKP [YOR001W 149-161]
21 | IPSGKVDPVTKKP [YJR024C 135-147]
105 | INLANEQPVLEKP [YDR227W 195-207]
150 | IGLFGKDLSKPGRP [YBR243C 53-66]
2630 | IERQRLSMVTPSKP [YCL063W 140-153]
21.9 | IDFFLALFSDPARP [YHL005C 58-71]
97.3 | ILIGLLKDILPQRP [YNR011C 357-370]
639 | IDIPVRQPYSKKP [YDR422C 269-281]
126 | IITDTTRPSNNRP [YOR368W 277-289]
197 | IAHFNYLPPTIRP [YKR099W 624-636]
89 | IEFKDVSFSYPTRP [YPL270W 493-506]
76.3 | ILEEDLNPDAPPKP [YPL057C 39-52]
29 | IAVISVLPNFKKP [YBL004W 947-959]

normalised SPOT signal, Boehringer light units (BLU); mean over the file's lines of this peptide | Binder
62 | IFPPIDDPLPFKP [YDR284C 246-258]
87.3 | IKPPKHIRNEPVKP [YHR037W 22-35]
84.6 | INAYSNIPPQQRP [YCR033W 972-984]
508 | IHLTDKGFKMPKKP [YOR243C 79-92]
420 | IGNDRASPTNKKP [YGR097W 338-350]
105 | IGRNIVKVVYPDKP [YJL025W 348-361]
90.9 | IFYSLIYPYLIKP [YIL067C 132-144]
133 | INQFGIVPLGPKP [YGR154C 339-351]
63.2 | IEKTKDILSIPPKP [YOR219C 489-502]
21.1 | IGSFITINIVPWRP [YLR101C 109-122]
86.1 | ILDKTSPETAPHKP [YOR176W 118-131]
74.7 | IIPIAKTPLNARP [YJR001W 478-490]
100 | IIEKGPVPENLKP [YLR069C 260-272]
0 | ILYKSNDVELPGKP [YMR094W 38-51]
124 | IDILGLAELAPGKP [YLR304C 721-734]
142 | IAVGLDALNIPHKP [YHR033W 54-67]
84.8 | IDLVKHSPGAIKP [YHL030W 1303-1315]
57.8 | IILENFIVEVPDKP [YKL005C 358-371]
73 | ILKQDLIPSIGKP [YNR027W 300-312]
1350 | ILTFSTKKSKPIRP [YMR259C 332-345]

normalised SPOT signal, Boehringer light units (BLU); mean over the file's lines of this peptide | Binder
15.7 | ILAILQELSLPSRP [YGR002C 424-437]
2420 | IPILIKMSRSPPRP [YDR243C 233-246]
79.8 | IPSENNIFFIPQKP [YPL147W 673-686]
114 | IKKSVSSPKVSKP [YLR453C 47-59]
52.3 | ILVESSSPLSSKP [YGL248W 276-288]
9.5 | INPLGITPLGPKP [YKR076W 353-365]
82.1 | IHYKKNIEISPLKP [YML053C 112-125]
121 | IHTSPHQPSDVKP [YDR227W 60-72]
176 | ILVSLLIHSLPRKP [YGL104C 354-367]
204 | IESLTTIMRIPSKP [YBR250W 264-277]
38.6 | IKPDAVVPERVKP [YPR171W 226-238]
99.1 | IAIEREEDSIPSRP [YMR221C 251-264]
370 | IKMASFLPVPEKP [YNL206C 123-135]
57.2 | IPPPQTLPNGQKP [YGL222C 52-64]
118 | IDRIPPPTGRPDKP [YLR289W 221-234]
155 | IPGLGYLENNPGRP [YOL146W 66-79]
2850 | IFLNRKKPALFRP [YNL230C 281-293]
67.7 | IIDSVKVPDSYKP [YDR058C 11-23]
